In paper PMC7884448:

How the values were obtained:
[1] = SDD-AGE of MAVS aggregates, HEK293; conditions: glycan lost; control: wild type
[2] = cycloheximide chase, HEK293 and A549; conditions: glycan gained; control: without Thiamet-G

| Protein | oligomerisation [1] | degradation_or_half_life [2] |
| --- | --- | --- |
| mitochondrial antiviral signaling protein (MAVS): S366A (protein) parent chain: MPFAEDKTYKYICRNFSNFCNVDVVEILPYLPCLTARDQDRLRATCTLSGNRDTLWHLFNTLQRRPGWVEYFIAALRGCELVDLADEVASVYQSYQPRTSDRPPDPLEPPSLPAERPGPPTPAAAHSIPYNSCREKEPSYPMPVQETQAPESPGENSEQALQTLSPRAIPRNPDGGPLESSSDLAALSPLTSSGHQEQDTELGSTHTAGATSSLTPSRGPVSPSVSFQPLARSTPRASRLPGPTGSVVSTGTSFSSSSPGLASAGAAEGKQGAESDQAEPIICSSGAEAPANSLPSKVPTTLMPVNTVALKVPANPASVSTVPSKLPTSSKPPGAVPSNALTNPAPSKLPINSTRAGMVPSKVPTSMVLTKVSASTVPTDGSSRNEETPAAPTPAGATGGSSAWLDSSSENRGLGSELSKPGVLASQVDSPFSGCFEDLAISASTSLGMGPCHGPEENEYKSEGTFGIHVAENPSIQLLEGNPGPPADPDGGPRPQADRKFQEREVPCHRPSPGALWLQVAVTGVLVVTLLVVLYRRRLH | no change |  |
| mitochondrial antiviral signaling protein (MAVS): Thiamet-G (protein) parent chain: MPFAEDKTYKYICRNFSNFCNVDVVEILPYLPCLTARDQDRLRATCTLSGNRDTLWHLFNTLQRRPGWVEYFIAALRGCELVDLADEVASVYQSYQPRTSDRPPDPLEPPSLPAERPGPPTPAAAHSIPYNSCREKEPSYPMPVQETQAPESPGENSEQALQTLSPRAIPRNPDGGPLESSSDLAALSPLTSSGHQEQDTELGSTHTAGATSSLTPSRGPVSPSVSFQPLARSTPRASRLPGPTGSVVSTGTSFSSSSPGLASAGAAEGKQGAESDQAEPIICSSGAEAPANSLPSKVPTTLMPVNTVALKVPANPASVSTVPSKLPTSSKPPGAVPSNALTNPAPSKLPINSTRAGMVPSKVPTSMVLTKVSASTVPTDGSSRNEETPAAPTPAGATGGSSAWLDSSSENRGLGSELSKPGVLASQVDSPFSGCFEDLAISASTSLGMGPCHGPEENEYKSEGTFGIHVAENPSIQLLEGNPGPPADPDGGPRPQADRKFQEREVPCHRPSPGALWLQVAVTGVLVVTLLVVLYRRRLH |  | no change |
